Experimental data published in patent US20240101635A1 (AKSTON BIOSCIENCES, published 2024).
Like-named read-outs stand apart in the source and are kept apart here.

Assays:
human insulin receptor [1] = molecular target: T1, human insulin receptor (human, UniProt P06213 28-1382); experiment: competition with biotinylated RHI on IM-9 cells, flow cytometry, 4 C
T1 construct: whole, on cells; Endogenous receptor on IM-9 cells; also called IR
Experimental: (§1) 40 μL of an IM-9 cell suspension (8×10⁶ cells/mL) was then added to each well by multichannel pipette, mixed again gently and incubated on ice for 30 min to allow competitive binding on the insulin receptor on IM-9 cells. Cells were then washed twice with 275 μL of ice-cold FACS wash buffer (HBSS/2 mM EDTA/0.1% Na-azide+0.5% horse serum) by centrifuging the V-bottom plate at 3000 rpm for 3 min and aspirating the supernatant. Cells were then resuspended in 40 μL of FACS staining medium containing 1:100 diluted Streptavidin-PE (Life Technologies) for 20 min on ice. Cells were then washed once with 275 μL of ice-cold FACS buffer and finally fixed with 3% paraformaldehyde for 10 min at room temp. Cells were then washed once with 275 μL of ice-cold FACS buffer and resuspended in 250 μl of FACS buffer for analysis.
The V-bottom plates containing cells were then analyzed on a Guava 8-HT flow cytometer (Millipore). Biotinylated-RHI binding to insulin receptor was quantitated by the median fluorescence intensity (MFI) of the cells on the FACS FL-2 channel for each concentration of the test compound. Control wells were labeled only with biotinylated-RHI and were used to calculate the percent (%) inhibition resulting from each test compound concentration. The % inhibition by test compounds of biotinylated-RHI binding on IM-9 cells was plotted against log concentrations of the test compound, and the resulting IC50 values were calculated using GraphPad Prism (GraphPad Software, La Jolla, CA) for the test compounds. Lower IC50 values of the test compound therefore indicate greater levels of biotinylated-RHI inhibition at lower concentrations indicating stronger binding of the insulin-Fc fusion protein to the insulin receptor. A control compound, such as unlabeled recombinant human insulin (RHI) was also used as an internal standard to generate an RHI IC50 against which a given compound IC50 could be ratioed (IC50(compound)/IC50(RHI)). Lower IC50 ratios have more similar binding to RHI (stronger binding to insulin receptor), while higher IC50 ratios have weaker binding to the insulin receptor relative to RHI.

human insulin receptor [2] = molecular target: T1, human insulin receptor; experiment: as above; remark: listed apart in the source
Experimental: as §1
The V-bottom plates containing cells were then analyzed on a Guava 8-HT flow cytometer (Millipore). Biotinylated-RHI binding to insulin receptor was quantitated by the median fluorescence intensity (MFI) of the cells on the FACS FL-2 channel for each concentration of the test compound. […] The % inhibition by test compounds of biotinylated-RHI binding on IM-9 cells was plotted against log concentrations of the test compound, and the resulting IC50 values were calculated using GraphPad Prism (GraphPad Software, La Jolla, CA) for the test compounds. […]

biotinylated canine FcRn = biotinylated canine FcRn (canine, UniProt A0A8I3PFR8 25-347, biotinylated (site not stated)); experiment: ELISA pH 5.5, fusion protein coated, biotinylated canine FcRn titrated
Chain of biotinylated canine FcRn (A0A8I3PFR8 entry or part of it): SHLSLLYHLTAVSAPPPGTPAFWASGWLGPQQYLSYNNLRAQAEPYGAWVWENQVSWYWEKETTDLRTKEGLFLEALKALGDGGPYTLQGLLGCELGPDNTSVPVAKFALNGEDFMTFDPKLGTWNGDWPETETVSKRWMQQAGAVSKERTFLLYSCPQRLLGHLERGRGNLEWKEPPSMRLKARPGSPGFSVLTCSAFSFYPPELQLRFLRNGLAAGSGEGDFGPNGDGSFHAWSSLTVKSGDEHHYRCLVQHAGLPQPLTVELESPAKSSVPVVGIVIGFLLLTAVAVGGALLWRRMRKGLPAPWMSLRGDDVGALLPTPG
Experimental: Insulin-Fc fusion proteins comprising Fc fragments of canine or feline origin were diluted to 10 μg/ml in sodium bicarbonate pH 9.6 buffer and coated in duplicate on Maxisorb ELISA plate strips for 1-2 hours at RT. The strips were then washed 4 times with PBST (PBS/0.1% Tween-20) buffer and blocked with Superblock blocking reagent (ThermoFisher). Strips for FcRn binding were then washed again twice with pH 5.5 MES/NaCl/Tween (50 mM MES/l50 mM NaCl/0.1% Tween-20) buffer before addition of the FcRn reagent (biotinylated canine FcRn; Immunitrack). […] Serial dilutions (1:3× dilutions) of biotinylated FcRn reagent were prepared in pH 5.5 MES/NaCl/Tween/10% Superblock buffer at concentrations from 1000 ng/ml to 0.45 ng/ml and loaded at 100 μL/well using a multichannel pipettor onto the strips coated with the insulin-Fc fusion protein compounds. The assay plate was then incubated for 1 hour at room temperature. FcRn binding strips were washed 4 times with pH 5.5 MES/NaCl/Tween buffer and then loaded with 100 μl/well […] diluted 1:10000 in pH 5.5 MES/NaCl/10% Superblock buffer. After incubating for 45 minutes, strips were washed again 4 times with pH 5.5 MES/NaCl/Tween buffer. TMB was finally added to reveal the bound biotinylated-canine FcRn reagent, and the color development was stopped with the ELISA stop reagent. The plate was read in an ELISA plate reader at a wavelength of 450 nm. The OD values (proportional to the binding of canine-FcRn to the insulin-Fc fusion protein test compounds) were plotted against log concentrations of FcRn added to each well to generate binding curves using GraphPad Prism software. EC50 values for each binding curve were calculated to compare between different compounds.

human insulin receptor [3] = molecular target: T1, human insulin receptor; experiment: competition with biotinylated RHI on IM-9 cells, flow cytometry, 4 C; remark: listed apart in the source
Experimental: Cultures of IM-9 cells were centrifuged at 250×g (˜1000 rpm) for 10 min to pellet the cells. Cells were washed once with HBSS or PBS buffer, resuspended in cold FACS staining medium (HBSS/2 mM EDTA/0.1% Na-azide+4% horse serum) to a concentration of 8×10⁶ cells/mL and kept on ice or 4° C. until test solutions were made. The insulin-Fc protein was diluted in FACS buffer in 1:3 serial dilutions as 2× concentrations in 1.2 mL tubes (approx. 60 μL volume of each dilution), and the solutions were kept cold on ice until ready for pipetting.
40 μL of an IM-9 cell suspension (8×10⁶ cells/mL) was then added to each well by multichannel pipette, mixed again gently and incubated on ice for 30 min to allow competitive binding on the insulin receptor on IM-9 cells. […]
The V-bottom plates containing cells were then analyzed on a Guava 8-HT flow cytometer (Millipore). Biotinylated-RHI binding to insulin receptor was quantitated by the median fluorescence intensity (MFI) of the cells on the FACS FL-2 channel for each concentration of the test compound. […] The % inhibition by test compounds of biotinylated-RHI binding on IM-9 cells was plotted against log concentrations of the test compound, and the resulting IC50 values were calculated using GraphPad Prism (GraphPad Software, La Jolla, CA) for the test compounds.

[4] = molecular target: T2, biotinylated recombinant human Fc(gamma) receptor I (human, UniProt P12314 16-288, biotinylated (site not stated)); experiment: ELISA, fusion protein coated, biotinylated rhFc(gamma)RI at 3000 ng/mL, pH 7.4
T2 construct: Bought reagent, used as surrogate for canine/feline Fc(gamma)RI; also called rhFc(gamma) receptor I; Fc(gamma)RI
T2 sequence (P12314 16-288 limits assumed): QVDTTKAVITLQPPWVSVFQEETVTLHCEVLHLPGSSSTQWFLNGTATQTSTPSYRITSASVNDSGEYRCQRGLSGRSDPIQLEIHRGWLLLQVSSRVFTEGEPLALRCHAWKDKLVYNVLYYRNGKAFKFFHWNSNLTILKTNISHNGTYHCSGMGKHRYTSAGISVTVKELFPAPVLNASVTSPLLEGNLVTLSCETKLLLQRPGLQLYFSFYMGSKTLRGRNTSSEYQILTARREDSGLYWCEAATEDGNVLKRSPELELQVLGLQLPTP
Experimental: The binding of insulin-Fc fusion proteins to the Fc(gamma) receptor I at pH 7.4 was conducted using an ELISA assay as follows. Since neither canine nor feline Fc(gamma) receptor I was not commercially available, human Fc(gamma) receptor I (i.e., rhFc(gamma) receptor I) was used as a surrogate mammalian receptor. Insulin-Fc compounds were diluted to 10 μg/mL in sodium bicarbonate buffer at pH 9.6 and coated on Maxisorp (Nunc) microtiter plates overnight at 4° C., after which the microplate strips were washed 5 times with PBST (PBS/0.05% Tween-20) buffer and blocked with Superblock blocking reagent (ThermoFisher). Serial dilutions of biotinylated rhFc(gamma) receptor I (recombinant human Fc(gamma)R-I; R&D Systems) were prepared in PBST/10% Superblock buffer from 6000 ng/mL to 8.2 ng/mL and loaded at 100 μL/well onto the microplate strips coated with insulin-Fc fusion protein. The microtiter plate was incubated for 1 hour at room temperature after which the microplate strips were washed 5 times with PBST and then loaded with 100 μL/well of streptavidin-HRP diluted 1:10000 in PBST/10% Superblock buffer. After incubating for 45 min, the microplate strips were washed again 5 times with PBST. TMB was added to reveal the bound Fc(gamma) receptor I proteins and stopped with ELISA stop reagent (Boston Bioproducts). The plate was read in an ELISA plate reader at 450 nm, and the OD values (proportional to the binding of rhFc(gamma) receptor I to insulin-Fc protein) were plotted against log concentrations of rhFc(gamma) receptor I added to each well to generate binding curves using GraphPad Prism software.
Finally, select compounds were tested for their likelihood to interact with the immune system by measuring their Fc(gamma) receptor binding activity according to the procedure of Example 8. Table 19 compares the Fc(gamma) receptor I binding of these insulin-Fc fusion proteins with the Fc(gamma) receptor binding of the insulin-Fc fusion protein of SEQ ID NO: 52.

T1 sequence (P06213 28-1382): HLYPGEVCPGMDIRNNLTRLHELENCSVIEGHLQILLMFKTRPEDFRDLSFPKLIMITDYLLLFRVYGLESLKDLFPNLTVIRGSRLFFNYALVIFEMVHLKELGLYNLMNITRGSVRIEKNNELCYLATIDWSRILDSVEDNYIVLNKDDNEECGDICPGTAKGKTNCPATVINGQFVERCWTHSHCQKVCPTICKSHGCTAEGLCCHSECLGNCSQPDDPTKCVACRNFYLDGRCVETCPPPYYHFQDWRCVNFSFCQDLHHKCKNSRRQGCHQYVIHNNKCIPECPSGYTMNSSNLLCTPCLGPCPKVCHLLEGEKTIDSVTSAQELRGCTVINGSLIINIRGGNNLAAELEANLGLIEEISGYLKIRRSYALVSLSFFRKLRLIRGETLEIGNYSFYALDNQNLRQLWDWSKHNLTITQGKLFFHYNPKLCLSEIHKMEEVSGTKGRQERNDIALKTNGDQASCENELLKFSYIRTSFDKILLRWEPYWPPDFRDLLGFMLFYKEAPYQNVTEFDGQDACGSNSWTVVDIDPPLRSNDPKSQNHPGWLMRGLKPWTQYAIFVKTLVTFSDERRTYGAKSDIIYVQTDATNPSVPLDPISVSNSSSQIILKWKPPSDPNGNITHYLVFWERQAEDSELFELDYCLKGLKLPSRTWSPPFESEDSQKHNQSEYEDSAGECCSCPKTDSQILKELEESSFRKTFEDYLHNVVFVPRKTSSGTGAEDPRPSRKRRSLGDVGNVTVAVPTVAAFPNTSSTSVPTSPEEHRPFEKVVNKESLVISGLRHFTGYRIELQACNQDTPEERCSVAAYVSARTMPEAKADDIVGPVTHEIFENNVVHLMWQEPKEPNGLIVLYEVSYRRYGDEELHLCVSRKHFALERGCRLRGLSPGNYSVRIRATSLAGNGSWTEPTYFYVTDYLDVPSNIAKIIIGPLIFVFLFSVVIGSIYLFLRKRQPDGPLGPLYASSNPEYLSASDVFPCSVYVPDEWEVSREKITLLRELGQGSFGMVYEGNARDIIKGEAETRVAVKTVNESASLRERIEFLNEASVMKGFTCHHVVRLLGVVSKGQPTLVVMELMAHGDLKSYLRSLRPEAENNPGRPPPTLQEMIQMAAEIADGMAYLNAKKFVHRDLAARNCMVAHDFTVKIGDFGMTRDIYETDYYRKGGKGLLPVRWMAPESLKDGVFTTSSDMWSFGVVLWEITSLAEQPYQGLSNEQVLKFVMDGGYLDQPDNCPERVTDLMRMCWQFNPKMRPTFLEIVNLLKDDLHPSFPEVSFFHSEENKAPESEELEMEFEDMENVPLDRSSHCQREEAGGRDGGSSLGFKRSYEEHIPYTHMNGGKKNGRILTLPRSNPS

B1: insulin-Fc fusion protein of SEQ ID NO: 32 (Fc fusion)
chain: FVNQHLCGSHLVEALELVCGERGFHYGGGGGGSGGGGGIVEQCCTSTCSLDQLENYCGGGGGQGGGGQGGGGQGGGGGDCPKCPAPEMLGGPSVFIFPPKPKDTLLIARTPEVTCVVVDLDPEDPEVQISWFVDGKQMQTAKTQPREEQFNGTYRVVSVLPIGHQDWLKGKQFTCKVNNKALPSPIERTISKARGQAHQPSVYVLPPSREELSKNTVSLTCLIKDFFPPDIDVEWQSNGQQEPESKYRTTPPQLDEDGSYFLYSKLSVDKSRWQRGDTFICAVMHEALHNHYTQESLSHSPG
notes: homodimer; also called 218d
**Q.** How did the IC50 (human insulin receptor [1]) turn out when B1 was run?
**A.** 2340 nM

**Q.** And the IC50 (human insulin receptor [2])?
**A.** 2340 nM

**Q.** What about the EC50 (biotinylated canine FcRn) of the same binder?
**A.** 0.599 µg/mL

**Q.** What about the IC50 (human insulin receptor [3]) of the same binder?
**A.** 2340 nM

**Q.** And the “OD450 nm Minus Assay Background” value [4]?
**A.** 0.311 OD450

**Q.** And the “OD450 nm at a Fc(gamma)RI concentration of 3000 (ng/mL)” value [4]?
**A.** 0.368 OD450

**Q.** And the “Ratio to SEQ ID NO: 52” value [4]?
**A.** 0.84 ratio
